Common to all, as to assay: purified protein
Common to all, as to type: biochemical, Cyclocybe aegerita

Substrate in data set [1]: O=[N+]([O-])c1ccc2c(c1)OCO2
Particulars: 1 mM H2O2, 100 mM potassium phosphate pH 7.0, 15% acetonitrile.

Substrate in data set [2]: CCn1c(=NN=c2sc3cc(S(=O)(=O)O)ccc3n2CC)sc2cc(S(=O)(=O)O)ccc21
Substrate in data set [3]: COc1ccc(CO)cc1OC
The note with it: 2 mM H2O2, 100 mM potassium phosphate pH 7.0, clone 23.

Setting [4] is: 2 mM H2O2, 100 mM sodium phosphate-citrate pH 3.0, clone 8.
[5] abbreviates: 2 mM H2O2, 100 mM sodium phosphate-citrate pH 3.0, clone 23.

Where a chain is given by its changes, count along the chain named. Names may count otherwise.

B1: PaDa-I (Cyclocybe aegerita; A359H/A360H/F354L/G361I/I291V/L110F/V100A/V118I) (protein)
chain: EPGLPPGPLENSSAKLVNDEAHPWKPLRPGDIRGPCPGLNTLASHGYLPRNGVATPAQIINAVQEGFNFDNQAAIFATYAAHLVDGNLITDLLSIGRKTRLTGPDPPPPASVGGLNEHGTFEGDASMTRGDAFFGNNHDFNETLFEQLVDYSNRFGGGKYNLTVAGELRFKRIQDSIATNPNFSFVDFRFFTAYGETTFPANLFVDGRRDDGQLDMDAARSFFQFSRMPDDFFRAPSPRSGTGVEVVVQAHPMQPGRNVGKINSYTVDPTSSDFSTPCLMYEKFVNITVKSLYPNPTVQLRKALNTNLDFLFQGVHHICTQVFPYGRD
notes: evolved secretion variant, mature secreted enzyme; signal peptide mutations F12Y, A14V, R15G, A21D; expressed in Saccharomyces cerevisiae BJ5464, purified by ion exchange, no tag mentioned; heme-thiolate
In the case of B1, in the data set “purified protein [1]” (clone 8), the Km (in general, the concentration of substrate that gives half-maximal velocity) worked out at 437 ± 53 µM; the kcat (in general, the number of substrate molecules converted per active site and unit of time at saturation) was found to be 368 ± 19 s⁻¹; the kcat/Km – broadly, the turnover number divided by the Michaelis constant – stood at 842000 ± 111000 M⁻¹ s⁻¹. Besides, in the data set “purified protein [2]” (setting [4]), the Km is 14 ± 2.4 µM, the kcat came to 239 ± 13 s⁻¹ and the kcat/Km came to 1.68e+07 ± 3.03e+06 M⁻¹ s⁻¹.

B2: PaDa-I (Cyclocybe aegerita; A359S/A360N/F354L/G361L/I291V/L110F/V100A/V118I/V358L) (protein)
chain: B1 chain with V315L, H316S, H317N, I318L
notes: as for B1
For the protein B2, the Km in the data set “purified protein [1]” (clone 23) was found to be 376 ± 40 µM; in “purified protein [3]”, 4920 ± 450 µM; in the data set “purified protein [2]” (setting [5]), 15 ± 2 µM. In addition, the values for the kcat in “purified protein [1]” (clone 23), in the data set “purified protein [3]” and in “purified protein [2]” (setting [5]) were 367 ± 16 s⁻¹, 151 ± 4 s⁻¹ and 250 ± 11 s⁻¹, respectively. Also, the values for the specificity constant (kcat/Km) in “purified protein [1]” (clone 23), in the data set “purified protein [3]” and in the data set “purified protein [2]” (setting [5]) were 976000 ± 112000 M⁻¹ s⁻¹, 31000 ± 3000 M⁻¹ s⁻¹ and 1.67e+07 ± 2.34e+06 M⁻¹ s⁻¹, respectively.

The record behind these values is PMC8476742, “Mapping Potential Determinants of Peroxidative Activity in an Evolved Fungal Peroxygenase from Agrocybe aegerita” (Frontiers in Bioengineering and Biotechnology, 2021).
